Measured values published in the DeepSol protein solubility set.

Assay: soluble on expression in E. coli; label from the status in PepcDB or PDB records
With “MAHSGDNHSSEFCMLRSLSASIGADPLLVQGAGGNTSIKQAGVLWIKASGTWLKNARDDEIMVPVALAPLLDAVSHRSPAAEAAGQFTLADLNPRQLRPSIETTVHALLPQKIVVHVHCVETISIAVQANAEALLEGRLRGLDWAFVPYRRPGLPLAQAIAERLKPATNVLVLGNHGLVVAADTVAEAALLLQRVTGLLARQPRPAPPPDLDALLRLAAGSDYRLPASTAAHAVATDLASCRIAASGSLYPDHVIFLGVGSVIAGPGENAAAVVARTAAAPTSILFPGKGVLMRREANAGAEAMARCLADVVARVDGAARVNYLSPKENAELLNWDAEKYRQQLNREGATLQLEHHHHHH” the “soluble on expression in E. coli” value was “not soluble”. For “MAIWQGASRRLSTGAKVWRAAKKHKREMGRPAAETQVSDKIKRKIVRCRGANLKVKLEKTNYANVFDQANKVCKKVVVTNVIDNKANKHYIRRNVMTKGAIIETEMGKAKVTSRPGQDGVVNAILLTELEHHHHHH”, the “soluble on expression in E. coli” value was “soluble”. In the case of “MAKAFEEQRRSPDLEALPFEDRIGLLVDREAAERDTRRLTTRLKIAALRQTACVEDVDLRTPRGIDRAVFAKLVEGRWIDRHENLLVTGATGLGKSWLACALGHKACRDNRSVLYHRVPRLFEALALARGDGRYARLLKSLGRAQLLILDDWGLSVLTAAERRDLLEILEDRHGRASTIVTRQLPVDTWHGAIGDPTVADAILDRLVHNAHRLQLTGESMRKRSAKTITLDGQPEHAAALEHHHHHH”, the “soluble on expression in E. coli” value is reported as “not soluble”. For “MAKATYACVECGYRTPKPLGRCPSCGSWESFQEVAPAPASRRAKPSPLPLLALSQVDEAEERRFSSGLSEVDRVLGGGFVTGEVVLLGGEPGVGKSTLLLEMAKRMPQRVYYVAGEESPAQIKLRAQRLGVKDLLLVRETRLEPLLALLEEDPPEVLFVDSVQTLEAGGSPGSLVAVREATSALVRFAKESGAAVVLVGHVTKEGVVAGPKSVEHAVDATLYLETAGPYRVLRSAKNRFGPVGEIGVFRMEEAGLLEVENPSEAFLKERPLGVPGSAVALALAGERALALEVQALAAKTPFPAPRRVVQGLDSRRVDVVLAVLERRLGLPLANLDIYVNLAGGLKVQDPGLDLAVALAVYSAVVGRPLPADLALVGEVGLAGEVRRVAGLERRLREGERAGFGRFLHPGNLKRLQEAVEAYLALEHHHHHH”, the “soluble on expression in E. coli” value was “not soluble”. With “MAKDVKPTRKNLMQIEDRIELSERGHDTLEKKRDGLIMEFMDILDQAQDVREDLDGSYERAQRAINMARAMEGDVAVRGAAAALKEHPELTTQSKNIMGVVVPQIESSKVRKSLDERGYGVMGTSARIDEAAEAYEELLENIILAAEVETAMKKMLEEIETTKRRVNALEFKLLPDLYDNQEYIEQKLEEQEREEIFRMKKIKAKKEEEEDALAAEEEAEEEPEAVTADDAAALEHHHHHH” the “soluble on expression in E. coli” value was “soluble”. With “MAKEFQLTHIFKKVSEFKDGECRCGPLEEHFNVEWLLYINRKDDELAVFLGCNSLQGTEETTLSIYVELKFTLKNSIGTRVTKIAKCLLSNKSTESDFGLNKFIGWETLLKDYLIDDSIIIEAKIKITKMTGFPRKELRSFDESSEEYSDMIIAVGDRKFYVLKQLLASNSTHFQSLIPLDFEEMDCEGKSEITLPDINPSDFQCLLEVLYGEPAMDDENVEGILHSAHMYKMTKVIRNCEEFLSNKSEKPMRDKFKIAKQYQLESLKKSCLSKIQTIQDIKSAMAGDLSDMDATVVAALLEKSVTIEPPSKNGRPY” the “soluble on expression in E. coli” value was “soluble”. In the case of “MAKESVKILQGKLDVKSLIDQLNAALSEEWLAYYQYWVGALVVEGAMRADVQGEFEEHAEEERHHAQLIADRIIELEGVPVLDPKKWFELARCKYDSPTAFDSVSLLNQNVSSERCAILRYQEIANFTNGKDYTTCDIAKHILAEEEEHEQDLQDYLTDIARMKESFLKK”, the “soluble on expression in E. coli” value is reported as “soluble”. For “MAKGDPKKPKGKMSAYAFFVQTCREEHKKKNPEVPVNFAEFSKKCSERWKTMSGKEKSKFDEMAKADKVRYDREMKDYGPAKGGKKKKDPNAPKRPPSGFFLFCSEFRPKIKSTNPGISIGDVAKKLGEMWNNLNDSEKQPYITKAAKLKEKYEKDVADYKSKGKFDGAKGPAKVARKKVEEEDEEEEEEEEEEEEEEDE”, the “soluble on expression in E. coli” value was “soluble”. For “MAKGIPYGISDFSRLIDQNYYYVDKTHFIPQIEEIANYLFLIRPRRFGKSVFLTMMRAYYDISQKDRFEERFGNLWIGKHPTPLQGIYQVLYFDFSKANLGRGSLEDNFNNYCCIQLNDFFSTYREYYQGEKELEQIIASTEAATKLHWLEATARRLGHLLYLIIDEYDNFTNVILSEQGKNLFRDLTHASGFYREYFKQFKGMFERIFLMGVSPVTLDDLSSGYNIDWNISVDPHFNMMMGFSETDVREMFGYYQKEGMLKGDIDAMINEMKPWYDNYCFAEASLKTDPRMFNCDMTLYYLRHRVNFDASPKELIDKNIRTDYSKLKMLARLDHENVSGEDRMSTIEEIAAKGEILVNLHTSFPAEKIVETDNFRSLLYYYGLLTMCGTRGDRIVMCIPNNCVREQYFGFLREYYQQRKEVFLPHLKDLIDDMAFDGQWRPLFEYIALAYKENSAIRDAIEGEHNLQGFFKAYLALASYYLVQPELEMNYGYCDFFLLPDKSRYPDTAHSYILELKYLPRTATDKELEEQAEEGRGQLKQYSRDKKVTTISEGTALHCILLQFKGWELIKCEEVSPKC”, the “soluble on expression in E. coli” value was “not soluble”. For “MAKHAPQLPIEVDSETGVWTTDALPMLYVPRHFFVNNHMGIEEVLGADAYAEILYKAGYKSAWHWCEKEAECHGLEGVAVFEHYMKRLSQRGWGLFEIERINLEEGTAEVRLRHSAFVYVYGKVNRKVDYMFTGWFAGAMDQILAARGSSLRTVAEQVYSGAEDGHEDGLFVVKPL”, the “soluble on expression in E. coli” value was “soluble”. In the case of “MAKIKLPIVTINAKGGAQYVVEGVEAVNALTQLENYPERGIRIKVDGKMTVITEGCLCSAAVTGEVEVDVPEIVCEEVECEPISNILPNPKNPTDPGENSKPEEKAGEK”, the “soluble on expression in E. coli” value is reported as “not soluble”. For “MAKIPVLEIFGPTIQGEGRVIGRKTMFVRTAGCDYRCSWCDSAFTWDGSAKEDIKLMTAEEIYDALLEIGGHRFNHVTISGGNPALIKGIQELVDLFEDKHIYTALETQGSRFQSWMTQIDDLTISPKPPSSGMKTNLEILDSVINQCTFHSLNLKVVIFDDADYDFAKLIHHRYPNIPFYLQVGNPYLDDNVDQHTDKLLERYEQLVDRVMQSSDMNHVYVLPQLHTLLWSNKKGV”, the “soluble on expression in E. coli” value was “not soluble”. With “MAKKNNKTKIQKPEAALQTDVAQITATGRVIAEHPSNFITPQKMRALFEDAESGDIRAQHELFADIEERDSDIAANMGTRKRALLTLNWRVAPPRNATPEEEKLSDQAYEMMDSLPTLEDLIMDLMDAVGHGFSALEVEWVFSDGLYLPRNFIHRPQSWFKWDKDNGLLLRTRENPEGEALWPLGWVVHTQKSRSVQQARNGLFRTLSWLYMFKHYAVHDFAEFLELYGMPIRIGKYGAGATKEEKNTLLRAVAEIGHNAAGIMPEGMEIELHNAANGTTATSNPFLQMADWCEKSAARLILGQTLTSGADGKSSTNALGNIHNEVRRDLLVSDAKQVAQTITSQIIGPFLQINYPHADPNRVPKFEFDTREPKDIAVFADAIPKLVDVGVQIPESWVRDKLVIPDVQEGEAVLVRQVPDNPVNRTALAALSAHTVPSKATGRHQEILDGALDDALVEPDFNSQLNPMVRQAVAALNACNSYEEADAALNALYPNLDNAKLRTYMQQALFISDILGQDHA” the “soluble on expression in E. coli” value was “soluble”. With “MAKQRVFIAGHRGMVGSAIRRQLEQRGDVELVLRTRDELNLLDSRAVHDFFASERIDQVYLAAAKVGGIVANNTYPADFIYQNMMIESNIIHAAHQNDVNKLLFLGSSCIYPKLAKQPMAESELLQGTLEPTNEPYAIAKIAGIKLCESYNRQYGRDYRSVMPTNLYGPHDNFHPSNSHVIPALLRRFHEATAQKAPDVVVWGSGTPMREFLHVDDMAAASIHVMELAHEVWLENTQPMLSHINVGTGVDCTIRELAQTIAKVVGYKGRVVFDASKPDGTPRKLLDVTRLHQLGWYHEISLEAGLASTYQWFLENQDRFRG” the “soluble on expression in E. coli” value was “soluble”. For “MAKRYVGSCTTVLVGKKASIDGSTIIARNEDGESPLHPQKFVYVKPEDQPRHYQSVLSKFAIDLPADPLGYTATPEAEDGHGIWAAAGINSENIAMTSTETITTNSRVLGVDPLVAAGIGEEDMPTIVLPYIHSARDGVQRLGSLLEQYGTYESNGIAFADKDEVWYFESIGGHHWAAIRIPDDAYVVAPNRFNITDFDFASDDTMSSADLRDLIETYHLNPDTEGYNLRHIFGSATIKDTRYNNPRTWYGQKYFNPEFNTTPIDQDLPFICRTSKKISIEDVKFVESSHYENTPYDVYGTTGTPAQKKLYRPIGINRNQELHILQIRNNVPAAVAGIHWLAFGPNTFNAVVPFYANVNDTPAAYRETGDKFDVTKMYWLSNLLATFGDYDFSLFKDQEDVFEQKTVAACRHLQLTTDEAVKDAKDIGDHLTAANEQMATIAMANSNELLGQMVAAAAPKMKLQFTLHDLEHHHHHH”, the “soluble on expression in E. coli” value was “not soluble”. In the case of “MAKSYDYQSAFDIIGPVMMGPSSSHTAGAVKIGNSARAVLGDMPKHIEIRYYESFAKTHQGHGTDVAIVGGAMGYSTFDSRIKSSLDIAKDENITIDIIEDEGESIGQHPNCAYIKANTKDGRYIEVIGISIGGGTIKLKGINVNGLNVELNHGLPMLVIDGNMNKAKINHLINDLSDMDLDLGEELIETNDNEGLVVFPLNKAISESALNIIKDKHSDLNVSYIK”, the “soluble on expression in E. coli” value is reported as “not soluble”. For “MAKTLYEKLFDAHVVYEAQNETPLLYIDRHLVHEVTSPQAFDGLRAHGRQVRQPGKTFATMDHNVSTQTKDINASGEMARIQMQELIKNCKEFGVELYDLNHPYQGIVHVMGPEQGVTLPGMTIVCGDS”, the “soluble on expression in E. coli” value was “not soluble”. For “MAKVLCVLYDDPVDGYPKTYARDDLPKIDHYPGGQTLPTPKAIDFTPGQLLGSVSGELGLRKYLESNGHTLVVTSDKDGPDSVFERELVDADVVISQPFWPAYLTPERIAKAKNLKLALTAGIGSDHVDLQSAIDRNVTVAEVTYCNSISVAEHVVMMILSLVRNYLPSHEWARKGGWNIADCVSHAYDLEAMHVGTVAAGRIGLAVLRRLAPFDVHLHYTDRHRLPESVEKELNLTWHATREDMYPVCDVVTLNCPLHPETEHMINDETLKLFKRGAYIVNTARGKLCDRDAVARALESGRLAGYAGDVWFPQPAPKDHPWRTMPYNGMTPHISGTTLTAQARYAAGTREILECFFEGRPIRDEYLIVQGGALAGTGAHSYSKGNATGGSEEAAKFKKAV”, the “soluble on expression in E. coli” value was “soluble”. For “MALLQISEPGLSAAPHQRRLAAGIDLGTTNSLVATVRSGQAETLPDHEGRHLLPSVVHYQQQGHTVGYAARDNAAQDTANTISSVKRMMGRSLADIQTRYPHLPYRFKASVNGLPMIDTAAGLLNPVRVSADILKALAARASESLSGELDGVVITVPAYFDDAQRQGTKDAARLAGLHVLRLLNEPTAAAIAYGLDSGKEGVIAVYDLGGGTFDISILRLSRGVFEVLATGGDSALGGDDFDHLLADYIREQAGIADRSDNRVQRELLDAAIAAKIALSDADTVRVNVAGWQGEITREQFNDLISALVKRTLLACRRALKDAGVEPQDVLEVVMVGGSTRVPLVRERVGEFFGRTPLTAIDPDKVVAIGAAIQADILVGNKPDSEMLLLDVIPLSLGLETMGGLVEKVIPRNTTIPVARAQDFTTFKDGQTAMSIHVMQGERELVQDCRSLARFALRGIPPLPAGGAHIRVTFQVDADGLLSVTAMEKSTGVEASIQVKPSYGLTDGEIASMIKDSMSFAEQDVKARMLAEQKVEAARVLESLTGALTADAALLSAAERQCIDDAAAHLSAVAQGDDVDAIEQAIKNVDKQTQEFAARRMDQSVRRALKGHSVDEV”, the “soluble on expression in E. coli” value was “not soluble”. In the case of “MALMTMVQALNRALDEEMAKDPRVVVLGEDVGKRGGVFLVTEGLLQKYGPDRVMDTPLSEAAIVGAALGMAAHGLRPVAEIQFADYIFPGFDQLVSQVAKLRYRSGGQFTAPLVVRMPSGGGVRGGHHHSQSPEAHFVHTAGLKVVAVSTPYDAKGLLKAAIRDEDPVVFLEPKRLYRSVKEEVPEEDYTLPIGKAALRREGKDLTLIGYGTVMPEVLQAAAELAKAGVSAEVLDLRTLMPWDYEAVMNSVAKTGRVVLVSDAPRHASFVSEVAATIAEDLLDMLLAPPIRVTGFDTPYPYAQDKLYLPTVTRILNAAKRALDY”, the “soluble on expression in E. coli” value is reported as “soluble”.
